Experimental data taken from PMC10563079 (Molecules, 2023).
“And” between values parts separate entries of the source, which are not always exact repeats. Equal entries are not always repeated. Where two headings read alike, the source gives them in different places. Bridge positions count the residues as written; N and C are the ends. Ends that are not written are not given here. Peptide text beside a SMILES is read from it.

B4: truncated version of PHGDH (sPHGDH, 1-307) (domain or fragment, human, UniProt O43175 1-307, looked up)
chain: MAFANLRKVLISDSLDPCCRKILQDGGLQVVEKQNLSKEELIAELQDCEGLIVRSATKVTADVINAAEKLQVVGRAGTGVDNVDLEAATRKGILVMNTPNGNSLSAAELTCGMIMCLARQIPQATASMKDGKWERKKFMGTELNGKTLGILGLGRIGREVATRMQSFGMKTIGYDPIISPEVSASFGVQQLPLEEIWPLCDFITVHTPLLPSTTGLLNDNTFAQCKKGVRVVNCARGGIVDEGALLRALQSGQCAGAALDVFTEEPPRDRALVDHENVISCPHLGASTKEAQSRCGEEIAVQFVDMV
modifications: labelled with Monolith NT.115 Protein Labeling Kit RED-NHS (in the MST assay only)
notes: human phosphoglycerate dehydrogenase (PHGDH), catalytic unit, residues 1-307; Exists predominantly as a homo-dimer with a small fraction of monomer; also called catalytic unit of PHGDH; source: recombinant

Key:
sPHGDH (1-307) = molecular target: T1, sPHGDH (1-307) (Homo sapiens, UniProt O43175); experiment: sPHGDH enzyme activity assay (NADH fluorescence); type: biochemical; settings: sPHGDH; 12 h pre-incubation; read-out: IC50 Value
T1 construct: the truncated version of PHGDH (sPHGDH, 1-307); made in house
T1 sequence (O43175 1-307): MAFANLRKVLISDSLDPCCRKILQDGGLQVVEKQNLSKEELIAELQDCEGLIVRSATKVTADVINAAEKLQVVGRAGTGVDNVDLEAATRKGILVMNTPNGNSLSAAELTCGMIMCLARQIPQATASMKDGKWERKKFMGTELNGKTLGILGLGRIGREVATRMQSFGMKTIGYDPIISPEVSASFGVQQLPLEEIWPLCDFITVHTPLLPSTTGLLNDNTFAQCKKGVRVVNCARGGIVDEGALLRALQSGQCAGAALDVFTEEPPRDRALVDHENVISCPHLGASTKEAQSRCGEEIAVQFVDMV
Description: (§1) PHGDH activity in the presence of peptides was measured in 96-well plates (100 μL per well) at 25 °C, through monitoring the NADH fluorescence (excitation at 360 nm and emission at 460 nm) over time. PAST1 and its substrate glutamate were also included in order to prevent product inhibition. In the enzyme assays, protein expression and purification, including the truncated version of PHGDH (sPHGDH, 1-307), the full-length PHGDH (1-533), and PAST1, were carried out as described in our previous papers. To evaluate the effects of peptides on enzyme activity, the peptides were pre-incubated with enzyme samples (sPHGDH 453.3 nM or PHGDH 30.9 nM) in the assay buffer (HEPES 50 mM, pH 7.5, 10 mM MgCl2, and 1 mM EDTA) for 12 h. Then, 1.98 μM PAST1, 1 mM NAD^+, and 30 mM glutamate were added and pre-incubated for 10 min before initiating the enzyme reaction via the addition of the substrate (1 mM 3-PG). Fluorescence signals were recorded for 3 min with the kinetics-reading mode of the Biotek plate reader (Synergy). IC50 values were obtained through fitting the data using a three-parameter Hill model of the graph of log dose against the percentage inhibition from three repeated experiments. For those peptides containing two disulfide bonds, a second step of oxidation reaction was carried out to generate the second disulfide pair. […] The purified Acm-protected peptide was then treated with iodine (I2, 1 wt% in MeOH), dropwise under acidic conditions until the solution became brown.

sPHGDH = molecular target: T2, sPHGDH (Homo sapiens, UniProt O43175); experiment: Microscale Thermophoresis (MST) binding assay
T2 construct: the truncated version of PHGDH (sPHGDH, 1-307); made in house
T2 sequence (O43175 1-307): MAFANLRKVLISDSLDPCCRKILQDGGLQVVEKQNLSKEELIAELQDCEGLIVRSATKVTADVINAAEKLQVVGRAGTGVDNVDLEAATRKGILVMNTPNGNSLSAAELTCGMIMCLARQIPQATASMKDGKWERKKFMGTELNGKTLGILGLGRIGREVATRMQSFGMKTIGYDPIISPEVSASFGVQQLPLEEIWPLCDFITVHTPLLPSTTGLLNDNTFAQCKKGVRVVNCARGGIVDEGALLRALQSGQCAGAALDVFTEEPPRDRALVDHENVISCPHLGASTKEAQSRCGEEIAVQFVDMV
Description: In this study, we first used Microscale Thermophoresis assays (MST) to evaluate whether the active peptides found in the enzyme inhibition assay directly bind sPHGDH (Table 2).
The binding affinity between the recombinant sPHGDH and cyclic peptides was measured with a NanoTemper Monolith NT.115 instrument (NanoTemper Technologies, Munich, Germany). sPHGDH was first adjusted to a concentration of 10 μM and then labeled with Monolith™ NT.115 Protein Labeling Kit RED-NHS (NanoTemper Technologies, Germany), according to the protocol of the manufacturer. After the protein labeling experiment was completed, sPHGDH was diluted with binding buffer (50 mM HEPES, pH 7.5, 1 mM EDTA, 10 mM MgCl2, 100 mM NaCl, and 0.005% Tween 20) to ensure that the fluorescent intensity of sPHGDH during the MST assay was about 500 RU. In this assay, the final concentration of sPHGDH after mixing with the peptide was 20 nM. Subsequently, the peptides were serially diluted in binding buffer (16 points, 1:2 dilutions, from 0.5 mM), then mixed and incubated with an equal volume of diluted sPHGDH at room temperature for 16 h. After incubation, the samples were loaded into premium treated capillaries and measured by the NanoTemper Monolith NT.115 instrument (NanoTemper Technologies, Germany). […]

[1] = molecular target: T3, full-length PHGDH (1-533) (Homo sapiens, UniProt O43175); experiment: full-length PHGDH enzyme activity assay (NADH fluorescence); type: biochemical; settings: IC50 value (μM), full-length PHGDH activity
T3 construct: the full-length PHGDH (1-533); made in house
T3 sequence (O43175 1-533): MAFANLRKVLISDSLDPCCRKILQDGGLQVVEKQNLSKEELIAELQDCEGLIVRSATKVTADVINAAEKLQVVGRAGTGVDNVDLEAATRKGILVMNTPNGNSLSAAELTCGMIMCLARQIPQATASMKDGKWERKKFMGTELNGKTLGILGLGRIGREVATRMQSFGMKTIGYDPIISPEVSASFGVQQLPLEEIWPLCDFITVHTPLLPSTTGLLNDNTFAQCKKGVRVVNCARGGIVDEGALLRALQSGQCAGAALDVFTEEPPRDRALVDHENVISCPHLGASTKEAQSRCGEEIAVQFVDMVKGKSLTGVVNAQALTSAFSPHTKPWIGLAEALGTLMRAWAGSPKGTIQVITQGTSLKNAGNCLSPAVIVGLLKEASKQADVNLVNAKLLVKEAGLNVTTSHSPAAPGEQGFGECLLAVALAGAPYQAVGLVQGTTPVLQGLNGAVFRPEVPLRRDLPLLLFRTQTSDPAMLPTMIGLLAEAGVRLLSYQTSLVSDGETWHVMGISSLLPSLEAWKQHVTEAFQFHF
Description: as §1

[2] = molecular target: B4; experiment: MST; sPHGDH labelled with RED-NHS, 20 nM final; peptides in 16 points, 1:2 dilutions from 0.5 mM; 50 mM HEPES pH 7.5, 1 mM EDTA, 10 mM MgCl2, 100 mM NaCl, 0.005% Tween 20; incubated 16 h at room temperature; 1:1 binding mode; apparent; settings: both partners purified
[3] = molecular target: T4, full-length PHGDH (1-533) (human, UniProt O43175 1-533); experiment: cell-based or functional assay
T4 sequence (looked up): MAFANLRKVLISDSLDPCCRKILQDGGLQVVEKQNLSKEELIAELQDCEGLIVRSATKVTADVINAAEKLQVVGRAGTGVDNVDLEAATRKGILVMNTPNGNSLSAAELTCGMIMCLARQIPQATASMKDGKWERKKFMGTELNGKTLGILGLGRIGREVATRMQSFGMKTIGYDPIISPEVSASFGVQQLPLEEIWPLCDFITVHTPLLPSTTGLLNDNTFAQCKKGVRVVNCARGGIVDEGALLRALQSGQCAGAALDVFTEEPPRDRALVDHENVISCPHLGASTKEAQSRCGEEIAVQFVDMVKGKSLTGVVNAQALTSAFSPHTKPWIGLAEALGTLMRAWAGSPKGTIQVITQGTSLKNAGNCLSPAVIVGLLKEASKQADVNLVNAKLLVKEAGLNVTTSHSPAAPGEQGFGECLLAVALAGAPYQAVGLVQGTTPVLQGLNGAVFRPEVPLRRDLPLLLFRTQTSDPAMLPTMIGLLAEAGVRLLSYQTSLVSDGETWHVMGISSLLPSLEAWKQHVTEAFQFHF

[4] = molecular target: B4; experiment: cell-based or functional assay
[5] = molecular target: the molecule itself; experiment: cross-linking; sPHGDH 5 µM with peptides (0, 10, 50, 100, 250, 500 µM) and 2.5 mM BS3 in PBS (40 mM, pH 7.3), 25 °C, 30 min; SDS/PAGE; dimer to monomers
[6] = molecular target: truncated version of PHGDH (sPHGDH, 1-307) (human) (UniProt O43175)
[7] = molecular target: truncated version of PHGDH (sPHGDH, 1-307) (human) (UniProt O43175); remark: listed apart in the source

`CSCC[C@@H]1NC(=O)[C@H](CO)NC(=O)[C@H](CC(C)C)NC(=O)[C@H]([C@@H](C)O)NC(=O)[C@H](C)NC(=O)[C@H](CCC(N)=O)NC(=O)[C@@H]2CCCN2C(=O)[C@H]([C@@H](C)O)NC(=O)[C@@H](NC(C)=O)CSSC[C@@H](C(=O)O)NC(=O)[C@H](CCCCN)NC(=O)[C@H](CCCCN)NC(=O)[C@H](CCC(N)=O)NC(=O)[C@H](CCC(=O)O)NC(=O)[C@H](Cc2c[nH]c3ccccc23)NC(=O)[C@H](CO)NC(=O)CNC(=O)[C@H](CC(N)=O)NC(=O)[C@H](CCCCN)NC1=O` [Cyc1-12, C1TPQA TLSMK NGSWE QKKC19] (Ac-CTPQATLSMKNGSWEQKKC-OH; disulfide 1-19) gave an IC50 (sPHGDH (1-307)) of 5.6 ± 1.4 µM and a Kd (sPHGDH; MST, sPHGDH 20 nM, 1:1 binding mode, read-out: KD) of 13.4 ± 3.1 µM.

In the case of `CSCC[C@@H]1NC(=O)[C@@H]2CSSC[C@H](NC(=O)[C@H](Cc3c[nH]c4ccccc34)NC(=O)[C@H](CCCCN)NC(=O)CNC(=O)[C@H](CC(=O)O)NC(=O)[C@H](CCCNC(=N)N)NC1=O)C(=O)N[C@@H](CCCNC(=N)N)C(=O)N[C@@H](CCCCN)C(=O)N[C@@H](CCCCN)C(=O)N[C@H](C(=O)O)CSSC[C@H](NC(C)=O)C(=O)N[C@@H]([C@@H](C)O)C(=O)N1CCC[C@H]1C(=O)N[C@@H](CCC(N)=O)C(=O)N[C@@H](C)C(=O)N[C@@H]([C@@H](C)O)C(=O)N[C@@H](C)C(=O)N2` [Cyc2-3, C1TPQA TAC8MR DGKWC15 RKKC19] (Ac-CTPQATACMRDGKWCRKKC-OH; disulfide 1-19, 8-15), the IC50 [1] is reported as 53.1 µM and 32.9 µM and the Kd (sPHGDH) is reported as 5.1 ± 1 µM.

B1: double constrained cyclic peptide cyc2-1 (peptide)
peptide: Ac-CTPQATACMKDGKWCRKKC
modifications: disulfide 1-19, 8-15
notes: cyc1-1 with an added intramolecular disulfide C8-C15 (S8C, E15C); designed from the dimerization loop of human PHGDH; source: synthetic peptide (GL Biochem, Shanghai; Fmoc solid-phase synthesis, stepwise disulfide formation, HPLC purified)
With B1 the Kd [2] was 3.3 ± 0.8 µM, the “IC50 of inhibition of full-length PHGDH enzyme activity (NADH fluorescence); the pair blocked is the PHGDH homo-oligomer (m2+m2)” value (“IC50 of inhibition … (m2+m2)” below) [3] was 37.3 µM and the “IC50 of inhibition of sPHGDH enzyme activity (NADH fluorescence); the pair blocked is the sPHGDH homo-dimer (m1+m1)” value [4] was 12 µM.

B2: double constrained cyclic peptide cyc2-3 (peptide)
peptide: Ac-CTPQATACMRDGKWCRKKC
modifications: disulfide 1-19, 8-15
notes: cyc2-1 with K10R (peptide numbering); source: synthetic peptide (GL Biochem, Shanghai; Fmoc solid-phase synthesis, stepwise disulfide formation, HPLC purified)
For B2, the “IC50 of inhibition … (m2+m2)” value [3] was 32.9 µM and the “IC50 of inhibition of sPHGDH enzyme activity (NADH fluorescence); the pair blocked is the sPHGDH homo-dimer (m1+m1)” value [4] was 5.2 µM.

B3: cyclic peptide cyc1-11 (peptide)
peptide: CTPQATLTMKNGSWEEKKC
modifications: disulfide 1-19; not fully specified (N-terminus); printed as C_1_TPQA TLTMK NGSWE EKKC_19_
notes: A7L and S8T combined with D11N, K13S, native E15 kept, E16 (peptide numbering); designed from the dimerization loop of human PHGDH; source: synthetic peptide (GL Biochem, Shanghai; Fmoc solid-phase synthesis, HPLC purified)
B3 was tested, and the Kd [2] was 23.1 ± 4.2 µM, the “IC50 of inhibition … (m2+m2)” value [3] was 16.2 µM and the “IC50 of inhibition of sPHGDH enzyme activity (NADH fluorescence); the pair blocked is the sPHGDH homo-dimer (m1+m1)” value [4] was 5.4 µM.

In the case of B4, the “stoichiometry N” value [5] is reported as 2.

B5: cyclic peptide cyc1-12 (peptide)
peptide: CTPQATLSMKNGSWEQKKC
modifications: disulfide 1-19; not fully specified (N-terminus); printed as C_1_TPQA TLSMK NGSWE QKKC_19_
notes: contains R16Q, with A7L, D11N and K13S (peptide numbering); designed from the dimerization loop of human PHGDH; source: synthetic peptide (GL Biochem, Shanghai; Fmoc solid-phase synthesis, HPLC purified)
B5 was tested, and the “IC50 of inhibition … (m2+m2)” value [3] was 20.3 µM and the “IC50 of inhibition of sPHGDH enzyme activity (NADH fluorescence); the pair blocked is the sPHGDH homo-dimer (m1+m1)” value [4] was 5.6 µM.

B6: cyclic peptide cyc1-5 (peptide)
peptide: CTPQATASMLDGKWEWKKC
modifications: disulfide 1-19; not fully specified (N-terminus); printed as C_1_TPQA TASML DGKWE WKKC_19_
Molecule B6 has an IC50 of inhibition of sPHGDH enzyme activity (NADH fluorescence); the pair blocked is the sPHGDH homo-dimer (m1+m1) [6] of 13.4 µM and an IC50 of inhibition of sPHGDH enzyme activity (NADH fluorescence); the pair blocked is the sPHGDH homo-dimer (m1+m1), differs from the table [7] of 13.7 µM.
